IntAct's records for PubMed 22879593

The substances below were run against USH1C, Q9Y6N9-1.
USH1C, Q9Y6N9-1, sequence (Q9Y6N9 whole entry): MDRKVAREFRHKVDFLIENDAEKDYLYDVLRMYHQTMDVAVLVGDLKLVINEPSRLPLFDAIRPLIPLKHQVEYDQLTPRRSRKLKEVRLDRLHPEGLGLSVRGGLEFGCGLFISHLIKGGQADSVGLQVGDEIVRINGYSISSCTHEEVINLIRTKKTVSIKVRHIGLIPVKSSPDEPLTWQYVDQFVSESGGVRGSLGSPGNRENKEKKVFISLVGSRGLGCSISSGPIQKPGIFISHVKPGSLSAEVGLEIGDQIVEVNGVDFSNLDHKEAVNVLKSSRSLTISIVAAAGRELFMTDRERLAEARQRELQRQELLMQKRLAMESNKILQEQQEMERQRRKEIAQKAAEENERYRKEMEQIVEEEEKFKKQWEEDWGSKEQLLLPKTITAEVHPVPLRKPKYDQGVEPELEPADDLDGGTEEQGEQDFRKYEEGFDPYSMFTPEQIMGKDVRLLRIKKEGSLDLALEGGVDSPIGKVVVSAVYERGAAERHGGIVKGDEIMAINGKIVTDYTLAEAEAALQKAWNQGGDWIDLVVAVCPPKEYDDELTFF

| effect of a mutation on the interaction | Substance |
| --- | --- |
| disrupting interaction strength | Cadherin-23 (Homo sapiens), Q9H251 L3188Q;L3215Q |

Target: USH1C, Q9Y6N9-1
Remark: another data set of the same source

| effect of a mutation on the interaction | Substance |
| --- | --- |
| decreasing interaction strength | Cadherin-23 (Homo sapiens), Q9H251 L3219Q |
| with no effect | Cadherin-23 (Homo sapiens), Q9H251 L3228Q |
| decreasing interaction strength | Cadherin-23 (Homo sapiens), Q9H251 Y3222E |

The remaining lines, values behind:

| Substance | effect of a mutation on the interaction |
| --- | --- |
| Cadherin-23 (Homo sapiens), Q9H251 L3223Q | with no effect |
| Cadherin-23 (Homo sapiens), Q9H251 L3225Q | with no effect |
| Cadherin-23 (Homo sapiens), Q9H251 L3215Q | decreasing interaction strength |
